The values that follow come from PMC6366758, “Structure basis of neutralization by a novel site II/IV antibody against respiratory syncytial virus fusion protein” (PLoS ONE, 2019).

Holding throughout (details): both partners purified
The target of assay [1] is T1, Antigenic site II peptide 259-273 (Human respiratory syncytial virus A (A2 …)).
T1 construct: RSV F antigenic site II, residues 259-273; source: synthetic peptide (Peptide 2.0)
T1 chain: SLINDMPITNDQKKL
Briefly: SPR; Biacore T200; mAb (2 ug/mL, 90 s) captured on protein A or protein G on a CM5 chip; site II peptides injected at 100, 200, 400, 800 nM, 180 s, then 600 s buffer; 1:1 fit; apparent KD = kd/ka. (In general: Surface plasmon resonance follows binding to a sensor surface in real time, without labels.)

Assay [2] concerns the target T2, Antigenic site II peptide 264-278 (Human respiratory syncytial virus A (A2 …)).
T2 construct: RSV F antigenic site II, residues 264-278; source: synthetic peptide (Peptide 2.0)
T2 chain: MPITNDQKKLMSNNV
Described as above.

Assay [3] has as its target T3, Antigenic site II peptide 254-273 (human respiratory syncytial virus).
T3 construct: RSV F antigenic site II, residues 254-273; source: synthetic peptide (Peptide 2.0)
T3 chain: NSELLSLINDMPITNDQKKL
The assay is described as above.

Assay [4] addresses T4, Antigenic site II peptide 254-268 (Human respiratory syncytial virus A (A2 …)).
T4 construct: RSV F antigenic site II, residues 254-268; source: synthetic peptide (Peptide 2.0)
T4 chain: NSELLSLINDMPITN
Described as above.

In assay [5] the target is T5, Antigenic site II peptide 260-278 (Human respiratory syncytial virus A (A2 …)).
T5 construct: RSV F antigenic site II, residues 260-278; source: synthetic peptide (Peptide 2.0)
T5 chain: LINDMPITNDQKKLMSNNV
The assay is described as above.

The target of a further assay is T6, Pre-fusion F (Human respiratory syncytial virus A, …, UniProt P03420, stabilised).
T6 construct: Fusion (F) glycoprotein F0 of human RSV/A2, residues 26-574, intact TM/CT; mutant furin site I, p27 region deleted, fusion peptide deletion, three stabilizing substitutions; Expressed with a gp64 signal peptide; also called pre-fusion RSV F; pre-fusion trimer; source: Sf9, baculovirus-infected, extracted from cell pellets, purified
Briefly: SPR; Biacore T200; mAb (2 ug/mL) captured on protein A or protein G amine-coupled to a CM5 chip; RSV F injected at 3.3, 10, 30, 90 nM, 180 s association, 600 s dissociation; 1:1 fit; apparent KD = kd/ka.

A further assay concerns the target T7, Post-fusion F (Human respiratory syncytial virus A, …, stabilised).
T7 construct: Fusion (F) glycoprotein of human RSV/A2 from residue 26, TM/CT domains replaced with a C-terminal 6-histidine tag; Expressed with a gp64 signal peptide; also called post-fusion RSV F; post-fusion trimer; source: Sf9, baculovirus-infected, culture supernatant, purified (IMAC, ion exchange)
The assay is described as above.

Assay [6] concerns the target T8, Antigenic site II synthetic peptide of RSV F (254-278) (Human respiratory syncytial virus A, …).
T8 construct: RSV F antigenic site II, residues 254-278; also called Site II peptide; full-length peptide; source: synthetic peptide (Peptide 2.0)
T8 chain: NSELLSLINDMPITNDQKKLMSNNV
In words: SPR; Biacore T200; mAb (2 ug/mL, 90 s) captured on protein A or protein G on a CM5 chip; site II peptides injected at 100, 200, 400, 800 nM, 180 s, then 600 s buffer; 1:1 fit; apparent KD = kd/ka.

B1: R4.C6 monoclonal antibody (antibody, V domains shown)
VH: EVQLQQSGPELVKPGASVKISCKASGYAFSNSWMSWVKQRPGKGLEWIGRLFPADGDITYNGHFKDKAALTADKSSNTAYIQLSSLTSEDSAVYFCARMDNSEVFWGQGTLVTVSA
VL: DILLTQSQKFMSTSVGDRVSITCKASQNVRTGVSWYQRKPGQSPKALIYLASNRHTGVPDRFTGRGSGTDFTLTISEVQSEDLADYFCLQHWTVPYTFGGGTKLEIK
notes: mouse IgG2a; mouse kappa; Only the Fv was modelled in 6CXC; also called mAb R4.C6; source: mouse hybridoma (BALB/c immunized with RSV F NP), serum free medium, purified (protein-G)
Turning to B1, the binding result in assay [1] was “no binding (tested: 800 nM)”; in assay [3] it was “no binding (tested: 800 nM)”; in assay [4], “no binding (tested: 800 nM)”; in the assay with Pre-fusion F it was “binds”. Further, the Kd in assay [2] stood at 110 nM; in assay [5] it was 84.2 nM; in the assay with Post-fusion F, 0.34 nM; in assay [6], 12.5 nM.

B2: Motavizumab (antibody, V domains shown)
VH: QVTLRESGPALVKPTQTLTLTCTFSGFSLSTAGMSVGWIRQPPGKALEWLADIWWDDKKHYNPSLKDRLTISKDTSKNQVVLKVTNMDPADTATYYCARDMIFNFYFDVWGQGTTVTVSS
VL: DIQMTQSPSTLSASVGDRVTITCSASSRVGYMHWYQQKPGKAPKLLIYDTSKLASGVPSRFSGSGSGTEFTLTISSLQPDDFATYYCFQGSGYPFTFGGGTKVEIK
notes: IgG1; kappa; also called motatvizumab; source: obtained from National Institute of Standards and Technology
In the case of B2, in the assay with Pre-fusion F, the binding result is on record as “binds”. The Kd in assay [6] is 26.7 nM.
